Test results published in patent US9447149B2, “Methods and compositions for the rapid synthesis of radiometal-labeled probes” (University of Southern California, priority 2012, dated 2016).

Legend:
[1] = Probe stability in PBS by radio-HPLC; assay type: physicochemical; conditions: for parent [64Cu]1 remaining (radiochemical purity): PBS, room temperature
Protocol: The in vitro stability of [^64Cu]1 was evaluated in PBS buffer by radio-HPLC. […] This high stability is attributed to Sar cage in the conjugate. In addition, it is known that the U87MG cell line over-expresses integrin αvβ3 receptor [13].
All chemicals and solvents were obtained from Aldrich (Milwaukee, Wis., USA) and used without further purification. 1,8-Diamino-3,6,10,13,16,19-hexaazabicyclo[6.6.6]-eicosine was purchased from Areva Med (Dallas, Tex.). ^125I-Echistatin was obtained from Perkin-Elmer (Waltham, Mass.). ^1H and ^13C nuclear magnetic resonance (NMR) were recorded on a Varian 400 MHz spectrometer. Mass spectrum was obtained on a ThermoElectron Finnigan LTQ mass spectrometer equipped with an electrospray ionization (ESI) source (Thermo Scientific, USA). HPLC analyses were carried out on an analytical reversed-phase high performance liquid chromatography (HPLC) system equipped with a dual UV absorbance detector (Waters 2487) using a phenomenex C18 RP (250×4.6 mm 5 micron). The flow was 1 mL/min, with the mobile phase starting from 100% solvent A (0.1% TFA in water), followed by a gradient mobile phase to 20% solvent A and 80% solvent B (0.1% TFA in acetonitrile) at 30 min. The UV absorbance was monitored at 214 nm and the identification of the peptides was confirmed based on the UV spectrum using a PDA detector. The radioactivity was detected by a model of Ludlum 2200 single-channel radiation detector. The stability study was performed under the same HPLC condition. MicroPET scans were performed on a microPET R4 rodent model scanner (Siemens Medical Solutions USA, Inc., Knoxyille, Tenn.). The scanner has a computer-controlled bed and 10.8-cm transaxial and 8-cm axial fields of view (FOVs). It has no septa and operates exclusively in the 3-dimensional (3D) list mode. Animals were placed near the center of the FOV of the scanner.
The stability of [^64Cu]1 was tested in PBS. In brief, 3.7 MBq of the [^64Cu]1 was pipetted into 0.5 mL of the PBS and incubated in PBS at room temperature. At various time points (1, 6, and 24 h), an aliquot of the solution was taken and the radiochemical purity was determined by reverse-phase HPLC under identical conditions. The parent [^64Cu]1 was determined to be >99%, 98%, and 96% at 1, 6, and 24 h, respectively.

[2] = in vivo; set-up: species or system mice; conditions: female, athymic nude, mouse, iv, 7.4 MBq, total radioactivity
Protocol: (§1) The in vivo tumor-targeting efficacy of [^64Cu]1 was evaluated in nude mice bearing U87MG human glioma xenograft tumors (n=3) by static microPET scans at 2, 4, and 20 h after tail-vain injection of [^64Cu]1. U87MG tumors were clearly visualized at all time points examined. […] At 2 h post injection, the tumor/liver, tumor/kidneys, and tumor/muscle ratios reached 2.82±0.76, 2.22±1.49, and 11.79±2.65, respectively. Consequently, the high tumor-to-nontumor ratios provided excellent contrast for PET imaging. Blocking experiment was conducted to confirm the integrin αvβ3 specificity of [^64Cu]1.
(§2) All animal studies were approved by the University of Southern California Institutional Animal Care and Use Committee. Female athymic nude mice (about 4-6 weeks old, with a body weight of 20-25 g) were obtained from Harlan Laboratories (Livermore, Calif.). The U87MG human glioma xenograft model was generated by subcutaneous injection of 5×10^6 U87MG human glioma cells into the front flank of female athymic nude mice. The tumors were allowed to grow 3-5 weeks until 200-500 mm^3 in volume. Tumor growth was followed by caliper measurements of the perpendicular dimensions.
(§3) MicroPET scans and imaging analysis were performed using a rodent scanner (microPET R4 scanner; Siemens Medical Solutions). About 7.4 MBq of [^64Cu]1 was intravenously injected into each mouse (n=3) under isoflurane anesthesia. Five-minute static scans were acquired at 2, 4, and 20 h pi. The images were reconstructed by a two-dimensional ordered-subsets expectation maximum (OSEM) algorithm. For each microPET scan, regions of interest were drawn over the tumor, normal tissue, and major organs on the decay-corrected whole-body coronal images. The radioactivity concentration (accumulation) within the tumor, muscle, liver, and kidneys were obtained from the mean value within the multiple regions of interest and then converted to % ID/g.

[3] = test system: U87MG human glioma xenograft tumors; test: in vivo; set-up: species or system mice; conditions: mouse, 10 mg/kg
Protocol: as §1, §2, §3

[4] = Partition coefficient (1-octanol/PBS); assay type: physicochemical; conditions: 1-octanol / PBS pH 7.4, triplicate
Protocol: The partition coefficient value was expressed as log P. Log P of [^64Cu]1 was determined by measuring the distribution of radioactivity in 1-octanol and PBS. Approximately 111 kBq of [^64Cu]1 in 2 μL of PBS (pH=7.4) was added to a vial containing 0.5 mL 1-octanol and 0.5 mL of PBS (pH=7.4). After vigorously vortexing for 10 min, the vial was centrifuged at 12,500 rpm for 5 min to ensure the complete separation of layers. 200 μL of each layer was pipetted into test tubes, and radioactivity was measured using a gamma counter (Perkin-Elmer Packard Cobra). The mean value was calculated from triplicate experiments. The log P value of [^64Cu]1 was determined to be […].

[5] = molecular target: T1, integrin αvβ3 (Homo sapiens, UniProt P05106+P06756); test: Integrin αvβ3 receptor binding assay (competitive displacement of 125I-echistatin on U87MG cells); conditions: 125I-echistatin radioligand, 3 h, room temperature
T1 construct: host or cells: U87MG human glioblastoma cells (whole cells in suspension)

Structure (SMILES) | release of 64Cu from the conjugate ([1]; PBS buffer, over a period of 24 h, radio-HPLC) | parent [64Cu]1 remaining (radiochemical purity) ([1]; 1 h) [%] | parent [64Cu]1 remaining (radiochemical purity) ([1]; 6 h) [%] | parent [64Cu]1 remaining (radiochemical purity) ([1]; 24 h) [%] | tissue uptake at 2 h [2] [%ID/g] | tissue uptake at 4 h [2] [%ID/g] | tissue uptake at 20 h [2] [%ID/g] | tissue to tissue ratio at 2 h ([2]; tumor/kidneys ratio) | tissue to tissue ratio at 2 h ([2]; tumor/liver ratio) | tissue to tissue ratio at 2 h ([2]; tumor/muscle ratio) | uptake values of normal organs (liver, kidneys, muscle) with blocking [3] | logP [4] | IC50 [5] [nM]
N=C(N)NCCC[C@@H]1NC(=O)[C@H](CCCCNC(=O)[C@H]2O[C@@H](CNC(=O)Cn3nnc4c3-c3ccccc3CN(C(=O)CCNC(=O)CCOCCOCCOCCOCCOCCC(=O)NC35CNCCNCC(N)(CNCCNC3)CNCCNC5)c3ccccc3-4)[C@H](O)[C@@H](O)[C@H]2O)NC(=O)[C@@H](Cc2ccccc2)NC(=O)[C@H](CC(=O)O)NC(=O)CNC1=O [[^64Cu]1, metal not drawn] | no release of ^64Cu from the conjugate | > 99 | 98 | 96 | 4.96 ± 0.65 | 4.11 ± 0.48 | 2.41 ± 0.31 | 2.22 ± 1.49 | 2.82 ± 0.76 | 11.8 ± 2.65 | lower than those without coinjection of c(RGDyK) | 4.94 ± 0.1 | –
N=C(N)NCCC[C@@H]1NC(=O)[C@H](CCCCNC(=O)C2O[C@H](CNC(=O)Cn3nnc4c3-c3ccccc3CN(C(=O)CCNC(=O)CCOCCOCCOCCOCCOCCC(=O)N[C@]35CNCCNC[C@](N)(CNCCNC3)CNCCNC5)c3ccccc3-4)[C@H](O)C(O)[C@@H]2O)NC(=O)[C@@H](Cc2ccccc2)NC(=O)[C@H](CC(=O)O)NC(=O)CNC1=O (stereo partly shown) [compound 1] | – | – | – | – | – | – | – | – | – | – | – | – | 170 ± 3
